# From the supplement of paper PMC9732359
# ± gives the uncertainty stated by the source.
# Assay: protein stability index of a GFP-peptide fusion (yeast GPS) (PSI 1-4); higher = more stable; sorted into four equal gates, so the index is relative within each strain
# Outline: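 Mid-log yeast cultures in leucine-free medium, carrying a pooled plasmid library, were sorted into four equal gates by their GFP/Cherry fluorescence ratio. Each plasmid expressed Cherry along with GFP fused upstream of a tiled 17-residue yeast protein peptide. Plasmids recovered from each gate were PCR-amplified and Illumina-sequenced, with reads assigned to strains by barcodes. The protein stability index was obtained by summing each gate's read frequency weighted by its gate number.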
Sequence,protein stability index (doa10∆),protein stability index (pdr5∆),protein stability index (san1∆),protein stability index (ubr1∆)
LETLEHNGAPHHAIEEA [RPO21],3.34 ± 0.12,3.01 ± 0.1,2.94 ± 0.09,2.95 ± 0.19
YLACKVEECPQYIRTLV [SSN8],1.25 ± 0.14,1.27 ± 0.14,1.68 ± 0.16,1.96 ± 0.17
IQLNGGSISEKVDWARE [RPL3],2.66 ± 0.29,2.96 ± 0.12,2.88 ± 0.12,
MAREHAPSIIFMDEIDS [RPT6],2.14 ± 0.073,2.11 ± 0.077,2.54 ± 0.099,2.42 ± 0.059
SVQLPDMAKLKKMMNTS [SWI3],2.14 ± 0.082,1.82 ± 0.092,1.91 ± 0.11,1.94 ± 0.082
DPSMDPELAMALRLSME [RPN10],2.98 ± 0.062,3.18 ± 0.05,3.28 ± 0.068,2.96 ± 0.054
TLEAKIGGLLSKVREEV [RPO31],3 ± 0.11,3.33 ± 0.11,3.6 ± 0.084,2.87 ± 0.084
PFTDITVEGISKLLREH [RPB2],2.27 ± 0.076,2.4 ± 0.079,2.51 ± 0.077,2.42 ± 0.067
LPLQPIEIDYTVRVDKA [SNF12],2.39 ± 0.061,2.19 ± 0.055,2.08 ± 0.064,2.27 ± 0.045
TKEVESNIITKSLVQYI [DIS3],2.71 ± 0.14,3.05 ± 0.11,2.65 ± 0.076,2.87 ± 0.19
KINDESSIDKKSSILTV [YML103C/NUP188],2.35 ± 0.062,2.68 ± 0.067,2.56 ± 0.059,2.52 ± 0.056
HYGQTLGKKKNVKEEET [RPS8A],2.62 ± 0.035,2.84 ± 0.035,2.38 ± 0.033,2.879 ± 0.026
ITKLLEINLSKIFQTTP [YCS4],2.58 ± 0.054,2.23 ± 0.044,2.43 ± 0.042,2.6 ± 0.033
KAKAQAQAQAQAQAQVY [PGD1],2.96 ± 0.11,3.26 ± 0.088,3.04 ± 0.083,3 ± 0.066
GHRADVGGQFSKVQFDA [REC8],3.25 ± 0.085,3.45 ± 0.11,3.28 ± 0.059,3.23 ± 0.056
ESITKAMEFIFGNSLIC [SMC2],2.46 ± 0.071,1.55 ± 0.066,1.39 ± 0.092,1.89 ± 0.046
LKLLAKSHVLLATPVQF [BRR2],1.89 ± 0.068,1.4 ± 0.058,1.36 ± 0.11,1.44 ± 0.07
TGANSIYSVEKKISRLP [UBP6],3 ± 0.08,3.52 ± 0.11,3.07 ± 0.059,3.26 ± 0.037
KESDDPSIPLVIIRRLK [POP1],3.12 ± 0.1,2.07 ± 0.064,3.06 ± 0.068,3.05 ± 0.093
LKTLTHKQIHTTIFVKS [POP7],1.94 ± 0.036,2.07 ± 0.038,1.77 ± 0.063,1.82 ± 0.029
NVPVHVSPAFRVQVGDI [RPS11A],2.69 ± 0.075,3.15 ± 0.08,2.68 ± 0.079,2.71 ± 0.06
FGAPNNPNSTAITADLG [YGL172W/NUP49],3.04 ± 0.094,3 ± 0.078,3.03 ± 0.058,2.84 ± 0.087
FEDSMQFKKLTHAQRTG [PRP8],2.81 ± 0.086,3.11 ± 0.083,3.07 ± 0.087,2.99 ± 0.085
SVSMLLQYYILEYMNTA [RRI2],2.22 ± 0.079,2.34 ± 0.089,2.93 ± 0.086,2.19 ± 0.055
PVSCIIQNDEEYDTPAL [PRP8],1.79 ± 0.1,2.73 ± 0.077,1.92 ± 0.093,1.22 ± 0.086
REAYIENFAKGEHISAI [SWP82],2.98 ± 0.07,3.11 ± 0.089,2.99 ± 0.061,3.07 ± 0.067

Sequence,protein stability index (doa10∆),protein stability index (pdr5∆),protein stability index (san1∆),protein stability index (ubr1∆)
TSLLYLSTLEPSTSITL [RPN9],2.36 ± 0.059,1.89 ± 0.049,1.91 ± 0.089,2.13 ± 0.045
TIKVVKRSMDAEQLGHA [RPP1],3.18 ± 0.067,3.28 ± 0.07,3.41 ± 0.042,3.38 ± 0.077
ITYTPVRHGRAGATTSR [RPS15],2.28 ± 0.11,2.24 ± 0.081,2.58 ± 0.088,2.92 ± 0.099
QLAVANEIIRSLSDEVM [SIR4],3.16 ± 0.077,3 ± 0.081,2.59 ± 0.12,3.21 ± 0.087
VRSTIKFQLKKVLCLAV [RPL1A],1.45 ± 0.051,1.35 ± 0.053,1.29 ± 0.089,1.18 ± 0.037
NEKVAVMRNTYNTRKNA [GAL11],2.76 ± 0.14,3.14 ± 0.06,2.18 ± 0.072,2.37 ± 0.09
NEHSTSYTFRSEKGLLS [FAS1],2.6 ± 0.047,2.36 ± 0.054,2.7 ± 0.042,2.46 ± 0.033
LATRRVLQEYRLTKQAF [RPO21],2.99 ± 0.082,3.1 ± 0.1,3.01 ± 0.065,3.17 ± 0.056
IKKIVADLKKGKDLSPA [QCR2],3.5 ± 0.24,3.15 ± 0.2,3.11 ± 0.26,
GQQSVEGKRIAFGFVDR [RPO21],3.25 ± 0.2,3.01 ± 0.2,3.44 ± 0.11,3.52 ± 0.14
DFDLFKEVLPDLQNLNL [YJL039C/NUP192],3.44 ± 0.095,3.17 ± 0.11,3.19 ± 0.07,3.4 ± 0.16
IPPTFDKGAVGPNNFIW [MED4],3.22 ± 0.091,3.01 ± 0.084,2.77 ± 0.082,3.14 ± 0.11
SKKAEKTGTKPAAVFAE [RPL4B],2.52 ± 0.068,2.8 ± 0.084,2.44 ± 0.072,2.75 ± 0.061
GSYIDKKCPFTGLVSIR [RPS11A],2.12 ± 0.07,2.06 ± 0.059,2.27 ± 0.081,2.2 ± 0.049
SDIKQGYTQHGGLRPFG [PRE9],3.5 ± 0.13,2.53 ± 0.23,3.58 ± 0.15,
QNPMRDLKIEKLVLNIS [RPL11A],3.04 ± 0.076,3.09 ± 0.08,3.33 ± 0.082,2.84 ± 0.11
ISIFSTPGSVSLSAYNL [PRP8],2.61 ± 0.24,2.46 ± 0.09,,1.81 ± 0.22
TARRNVSGDAAALFRLH [SWI3],2.43 ± 0.093,2.98 ± 0.099,2.78 ± 0.086,1.95 ± 0.063
HYGLAVDIYTHFTSPIR [DIS3],1.56 ± 0.042,1.86 ± 0.052,1.61 ± 0.064,1.84 ± 0.039
LRIELQSVYNDEKLKTE [SRB8],3.17 ± 0.22,3.23 ± 0.24,3.26 ± 0.12,
ILSLIEEAAGTKMFEDR [SMC2],3.27 ± 0.11,3.19 ± 0.09,3.19 ± 0.084,3.24 ± 0.066
DLIHKSEAFPSLQSCSV [SMC4],2.53 ± 0.085,2.32 ± 0.061,2.47 ± 0.067,2 ± 0.041
INGWKFESLPLKSAENS [SWP82],2.92 ± 0.067,3.25 ± 0.053,2.9 ± 0.055,3.03 ± 0.058
HKSLIRSISWAPSIGRW [YGL100W/SEH1],2.81 ± 0.12,3.1 ± 0.11,2.21 ± 0.22,3.1 ± 0.091
IDVTFTKVNNQLIKVAV [RPL9A],2.23 ± 0.068,1.87 ± 0.048,1.75 ± 0.087,2.44 ± 0.036
RFRKLTSQEINDRLEAL [PRE8],3.07 ± 0.14,3.01 ± 0.089,2.52 ± 0.24,2.91 ± 0.11
